Test results: PMC6874815, “Tunnel engineering to accelerate product release for better biomass-degrading abilities in lignocellulolytic enzymes” (Biotechnology for Biofuels, 2019)
Changes are numbered by the printed parent chain. Numbers in names are those of the source.

B1: S7-xyl (Xyn10A in Table 1) (Halalkalibacterium halodurans C-125) (protein)
chain: AQGGPPKSGVFGENEKRNDQPFAWQVASLSERYQEQFDIGAAVEPYQLEGRQAQILKHHYNSLVAENAMKPESLQPREGEWNWEGADKIVEFARKHNMELRFHTLVWHSQVPEWFFIDEDGNRMVDETDPDKREANKQLLLERMENHIKTVVERYKDDVTSWDVVNEVIDDGGGLRESEWYQITGTDYIKVAFETARKYGGEEAKLYINDYNTEVPSKRDDLYNLVKDLLEQGVPIDGVGHQSHIQIGWPSIEDTRASFEKFTSLGLDNQVTELDMSLYGWPPTGAYTSYDDIPAELLQAQADRYDQLFELYEELAADISSVTFWGIADNHTWLDGRAREYNNGVGIDAPFVFDHNYRVKPAYWRIID
notes: N-terminal His-tag, pET-28a, E. coli Rosetta (DE3), codon-optimized synthetic gene; GH10
B2: S7-xyl (Xyn10A in Table 1) (Halalkalibacterium halodurans C-125; Q274S/V243N/W277R) (protein)
chain: B1 chain with V215N, Q246S, W249R
notes: as for B1

Substrate: O=[N+]([O-])c1ccc(O[C@@H]2OC[C@@H](O[C@@H]3OC[C@@H](O)[C@H](O)[C@H]3O)[C@H](O)[C@H]2O)cc1
Test: Eadie-Hofstee plot of hydrolysis
Assay type: biochemical, Halalkalibacterium halodurans
Conditions: pH and temperature of kinetic assay not stated (activity assay: glycine-NaOH pH 9.0, 70 °C)
Excerpt: Eadie-Hofstee plot of hydrolysis on S7-xyl (Xyn10A in Table 1)

[1] = mutant 254RL1, text b16 says Km slightly increased by 10%, table shows a decrease

| Protein | Km (listed as labelled Xyn10A) | kcat (listed as labelled Xyn10A) | kcat/Km (listed as labelled Xyn10A) | Km [1] | kcat [1] | kcat/Km [1] |
| --- | --- | --- | --- | --- | --- | --- |
| B1 | 4.42 ± 0.12 mM | 4.57 ± 0.31 s⁻¹ | 1030 M⁻¹ s⁻¹ | – | – | – |
| B2 | – | – | – | 4.04 ± 0.27 mM | 14.4 ± 0.21 s⁻¹ | 3540 M⁻¹ s⁻¹ |
